# Results published in patent publication US20110034670.
# Tested on: 4-(sulfamoyl)benzoyladenosine-pYEEI conjugate (9)
substance,measurement,value
Src tyrosine kinase,enhancement of catalytic activity and phosphorylation,enhanced the catalytic activity and phosphorylation by at least 40%
